Experimental data reported in the DeepSol protein solubility set.

Experiment: soluble on expression in E. coli; label from the status in PepcDB or PDB records
With “MSLNFTLHTLNGIKLWLVLLLLSGAINVCRADSPRQTINFNRGWKYCQGDFDHAARPGFDDSEWEKIGLPHSFSTPYFMSKDFYVGYGWYRKAFPVKKEILGKKSFLEFDGVFQEAEIFVNGHLAGTHKGGYTGFSIDISAYLKEGKNLVAVRVNNCWRPDLAPRAGEHVFSGGIYRNVRLVIKPPTYIDWYGTWITTPDLAENKGKSGSVHIRTDVCNASGKTDTYRLLTTVVDAQGKEVSSVSTSQVLPDNATYTFEQQTKEIQAPQLWHPNHPALYKVISSLYHGQELIDRYETAFGFRWFEWTADRGFFLNGEHLYFKGANVHQDHAGWGDAVTETGMRRDIRLVKEAGFDLIRGSHYPHSPAFSQACDEIGMLFWAENAFWGIGGHKGDGYWNASAYPVNESDRAEFENSVKAQLKELIRIHRNHPSIIVWSMSNEPFFTAPETINPMRKLLEETVKLSKQLDPTRPAAVGGAQRPLGEKRIDKLGDIAGYNGDGSYIPEFQQPGMPTVVSEYGSTTADRPGEYDPGWGDLAKNNAQNGFPWRSGQAIWCAFDHGSIAGSALGKMGIIDYFRIPKRAWYWYRNAYKGITEGHHHHHH” the “soluble on expression in E. coli” value was “not soluble”.
In the case of “MSLNGGVTELSVWSGFTENDGKVVQSIADDFNKSQSNVKVTIEQNPWNVINDKLLSSISAGNGPDVVTYQPDGAKGFIKQGAIVSTDDFYSDSSNETSHYRKNVVKDGEVDGKHYGVPMGHAPYSVYFNKAIFDAAGITEDQYPKTWDDLAALASKLTVDKDGDGTPDQYGIALADKDAGYLPIFLQGAGTDLVVDGKANLTSKKSKDTLTWIRDNFYAKKSSPSNLSLVDAQTLFCSGKAAMFWIGPWIVNAAKEKGIETGTFEMPKGPEKQVTEVAANYWYTTSQVDGNDAKKKAAYAWMKFFNNKKNQITWAVKANYPPNRTDVTADDMKSNNFVSQISPYMDHSSLLLGSVPSGFADVQSELNALGPKISESTGDLTDILQKSNDKIQGYIEEGHHHHHH”, the “soluble on expression in E. coli” value is reported as “soluble”.
In the case of “MSLNGKPAVFPEVKSIKITGNKALTTEEIREVMSTSTRNSFFGTGLFAGARRPFIADDFEKDISLIRKLYTFKGYFFADVEPTVKRSKNGDVSITIRIRENQPTLLDSLSYAGLDSIPENLRSRYLKKSLLKLQQIFSVEKLIEERDRTLDFFREHGYTFFHPDSIRITVDTLGLHAGVRFDISLPGRYAYGPVKVFVHDPLKKDNPAIAKTFVRDNVSVTIYGHQKFSPKVFSSAIAWKQGALTRQSLEQRTLENFGSTNLFSSISMQKDAARAGAIPITIDLDPAPKHQIEPKLLVDNRYGSLFVGGALSYENRNLFGAGQQLKLSTNYGRQLSSDTNVLSSLSADQYDKLIPYEFNIKADLVIPRLGKQGSYYNGTVEYAQSKLPVLLDSKRELIRATYSTRPTRVSKLDFDFFELEVARKDSLRGFQQLFKNDLAQNIGINPADPVAVNRGLDSLLQTRLNQTFRLRYSLSNREKSTRSKRSPIWNFSVTAEESGSLLWLIDKYIDKKSYAGFTDSDPQIFGTPYNQYVKLDTQLAVTKNLSPKRQVAARIALGWMSPYGKADTTPEDHRFYAGGSNSMRGWVFGTLGPGSCPNAAVSNFGADIKAELGLEYRIQFFKVFGQESGIALFTDAGNIWDRTGPYAFSLRSLTQDFAWDWGAGLRIGSPIGPFRFDFAWKLHDPANPQPWRFSQTKLTDFTFNFGIGETFEGHHHHHH”, the “soluble on expression in E. coli” value is reported as “not soluble”.
For “MSLNHLNDKVNEIKDNFYGLIGHAYLEKYITKPIVDEDKLRFLYTMLAEKLPKKDTKLFTLSALLVDAALEIHEAVSLHNIQTDPIKKNRQLNVLAGDYYSSLYYYLLADSRHLPIIQVFSHSIQEINEYKMKLYDGKNIDFDEVKNNVDKVDTFLLQNLAEHFQLTTWKKAISVFFHLKRLVHEREAWINGKATPLMKAIVTELFGSNRPVDELKKDDQLQVLELWEEKVEEGKDHLLEHVKALLPKFERFFVDHLNDLFGPDYIHEKVAEEGEGHHHHHH”, the “soluble on expression in E. coli” value was “soluble”.
In the case of “MSLNIAMTGATGYIGKHLSNYLTEKGGHRIIPLGRAMFREGMSGLLVQTLTHCDVIINLAGAPINQRWTPEHKQELFNSRITVTHRIIRALNAVKTKPKLMISASAVGYYPSLVESDEYTQTRGDGFLSDLCYAWEKEAKRCPQPTRLVITRFGVVLSPDGGAMQQMLRPLRATKVAAVIGPGTQPFPWIDIRDLCCAMAFFIENEELRGVFNLVAPQAVSQSTFTRAMGKAYHAWTTEGHHHHHH”, the “soluble on expression in E. coli” value is reported as “not soluble”.
